From patent US20240254182A1 (PROVINCIAL HEALTH SERVICES AUTHORITY, published 2024)
Substitutions are numbered along the chain they refer to.

T1: WT G-CSFR(Ig-CRH), purified, tag cleaved (human, UniProt Q99062 26-331)
T1 construct: also called G-CSFRWT; wild type G-CSFR(Ig-CRH)
T1 chain: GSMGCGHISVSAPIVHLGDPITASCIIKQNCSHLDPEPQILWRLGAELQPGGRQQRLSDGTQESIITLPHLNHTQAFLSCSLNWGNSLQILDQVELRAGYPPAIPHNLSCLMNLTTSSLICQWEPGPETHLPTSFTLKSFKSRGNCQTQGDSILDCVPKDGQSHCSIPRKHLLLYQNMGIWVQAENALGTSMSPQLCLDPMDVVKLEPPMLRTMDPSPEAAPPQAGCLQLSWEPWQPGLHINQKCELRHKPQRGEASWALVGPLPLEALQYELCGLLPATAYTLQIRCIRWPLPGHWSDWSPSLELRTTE

T2: WT G-CSF, purified from insect cells, tag cleaved (human, UniProt P09919 31-206)
T2 construct: protein of the SPR; also called G-CSFWT; wild type G-CSF
T2 sequence: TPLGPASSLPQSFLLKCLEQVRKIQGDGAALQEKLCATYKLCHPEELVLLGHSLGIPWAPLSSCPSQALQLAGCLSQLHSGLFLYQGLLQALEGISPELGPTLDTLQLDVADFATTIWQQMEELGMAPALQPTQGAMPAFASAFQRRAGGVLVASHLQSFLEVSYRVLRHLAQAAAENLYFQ

B1: design 9 G-CSFE, tag cleaved (ligand)
chain: T2 sequence with D104R, L108K, D112R, Q119R, E122K
notes: also called design 9 G-CSFE mutant
B2: design 303 G-CSFR(Ig-CRH)E, tag cleaved (receptor)
chain: SMGCGHISVSAPIVHLGDPITASCIIKQNCSHLDPEPQILWRLGAELQPGGRQQRLSDGTQESIITLPHLNHTQAFLSCSLNWGNSLQILDQVKLRAGYPPAIPHNLSCLMNLTTSSLICQWEPGPETHLPTSFTLKSFKSRGNCQTQGDSILDCVPKDGQSHCSIPDKHLLLYQNMGIWVQAENALGTSMSPQLCLDPMDVVKLEPPMLRTMDPSPEAAPPQAGCLQLSWEPWQPGLHINQKCELRHKPQRGEASWALVGPLPLEALQYELCGLLPATAYTLQIRCIRWPLPGHWSDWSPSLELRTTE
B3: design 134 G-CSFE, tag cleaved (ligand)
chain: T2 sequence with E46R, L108K, D112R, E122R, E123R
B4: design 307 G-CSFR(Ig-CRH)E, tag cleaved (receptor)
chain: B2 chain with R42E, K94E, D168R, D198K, D201K, R289E
B5: design 130 G-CSFR(Ig-CRH)E, tag cleaved (receptor)
chain: B2 chain with R42E, K94E
notes: also called 130 ECD (Ig-CRH)
B6: design 304 G-CSFR(Ig-CRH)E, tag cleaved (receptor)
chain: B2 chain with R42E
B7: design 402 G-CSFR(Ig-CRH)E, tag cleaved (receptor)
chain: B2 chain with R42E, K94E, D168E, Q175E, R289E
B8: design 300 G-CSFR(Ig-CRH)E, tag cleaved (receptor)
chain: B2 chain with F76K, Q92K, K94E
B9: design 401 G-CSFR(Ig-CRH)E, tag cleaved (receptor)
chain: B2 chain with R42E, K94E, R289D
B10: design 134 G-CSFR(Ig-CRH)E, tag cleaved (receptor)
chain: B2 chain with R42E, K94E, R142E
notes: also called design 137 G-CSFR(Ig-CRH)E
B11: design 117 G-CSFE, tag cleaved (ligand)
chain: T2 sequence with E46R, E122R, E123R
notes: also called design 117 G-CSFE mutant

Experiments:
[1] = target: T1, WT G-CSFR(Ig-CRH), purified, tag cleaved; experiment: SPR, WT G-CSFR(Ig-CRH) amine-coupled, G-CSFE injected, single-cycle kinetics
Procedure: (§1) The SPR binding assays were carried out on a Biacore T200 instrument (GE Healthcare, Mississauga, ON, Canada) with PBS-T (PBS+0.05% (v/v) Tween 20) running buffer at a temperature of 25° C. CM5 Series S sensor chip, Biacore amine coupling kit (NHS, EDC and 1 M ethanolamine), and 10 mM sodium acetate buffers were all purchased from GE Healthcare. PBS running buffer with 0.05% Tween20 (PBS-T) was purchased from Teknova Inc. (Hollister, CA). Designs were assessed in three different immobilization orientations.
To assess binding affinity of G-CSFE to G-CSFRWT, recombinant G-CSFRWT purified as described in Example 5 was captured as described above in this Example. Using single-cycle kinetics, six concentrations of a two-fold dilution series of each G-CSFE mutant starting at […] with a blank buffer control were sequentially injected as described above. The same sample titration was also performed on a reference cell with no variants captured. The G-CSFRWT surface was regenerated as described above.

[2] = target: T2, WT G-CSF, purified from insect cells, …; experiment: SPR (Biacore T200), single-cycle kinetics
[3] = target: B10; experiment: SPR, G-CSFRE amine-coupled, G-CSFE injected, single-cycle kinetics
Procedure: as §1
To determine binding affinity of G-CSFE to G-CSFRE the G-CSFRE mutant was captured by standard amine coupling as described by the manufacturer (GE LifeSciences). Briefly, immediately after EDC/NHS activation, a 5 μg/mL solution of G-CSFRE in 10 mM NaOAc, pH 5.0, was injected at a flow rate of 5 μL/min until a receptor density of ˜700-900 RU was reached. The remaining active groups were quenched by a 420 s injection of 1 M ethanolamine hydrochloride-NaOH pH 8.5 at 10 μL/min. Using single-cycle kinetics, six concentrations of a two-fold dilution series of the corresponding G-CSFE mutant starting at 200 nM with a blank buffer control were sequentially injected at 25 μL/min for 300 s with a 1800 s dissociation phase, resulting in a set of sensorgrams with a buffer blank reference. The same sample titration was also performed on a reference cell with no variants captured. The chip was regenerated to prepare for the next injection cycle by one pulse of 10 mM glycine/HCl, pH 2.0, for 30 s at 30 μL/min.
Double-referenced sensorgrams from duplicate or triplicate repeat injections were analyzed using Biacore™ T200 Evaluation Software v3.0 and fit to the 1:1 Langmuir binding model.

[4] = target: T2, WT G-CSF, purified from insect cells, …; experiment: SPR, single-cycle kinetics

Binder: B1
- KD fold change (against WT:WT) [1]: 79 fold

Binder: B2
- binding result [2]: no binding

Binder: B3
- KD fold change (against WT:WT) [1]: 465 fold
- KD fold change (against WT:WT) [3]: 1 fold

Binder: B4
- binding result [2]: no binding

Binder: B5
- binding result [4]: no binding

Binder: B6
- binding result [2]: no binding

Binder: B7
- binding result [4]: no binding

Binder: B8
- binding result [2]: no binding

Binder: B9
- binding result [4]: no binding

Binder: B10
- binding result [2]: no binding

Binder: B11
- KD fold change (against WT:WT) [1]: 3.4 fold
